Source: patent publication US20260167959A1, “APTAZYME-BASED REGULATABLE GENE EXPRESSION SYSTEMS” (REJUVENATE BIO INC, priority 2022, published 2026)

B1: RA068 (nucleic acid)
DNA: GCGCGTCCTGGATTCGCCCGGAATACCAGCATCGTCTTGATGCCCTTGGAAGTCCGGGGAAACGCGTACATCCAGCTGACGAGTCCCAAATAGGACGAAACGCGC
modifications: expressed or natural sequence
B2: RA006 (nucleic acid)
DNA: GCGCGTCCTGGATTCGCGGAAACGCGTACATCCAGCTGACGAGTCCCAAATAGGACGAAACGAGTGATACCAGCATCGTCTTGATGCCCTTGGCAGCACTCGC
modifications: expressed or natural sequence
B3: RA071 (nucleic acid)
DNA: GCGCGTCCTGGATTCGCGGAAACGCGTACATCCAGCTGACGAGTCCCAAATAGGACGAAACGCGGAATACCAGCATCGTCTTGATGCCCTTGGAAGTCCGCGC
modifications: expressed or natural sequence
B4: RA074 (nucleic acid)
DNA: GCGCGTCCTGGATTCGCGGAAACGCGTACATCCAGCTGACGAGTCAGAATACCAGCATCGTCTTGATGCCCTTGGAAGTCTCCAAATAGGACGAAACGCGC
modifications: expressed or natural sequence
B5: RA070 (nucleic acid)
DNA: GCGCGTCCTGGATTCGCGGAAACGCGTACATCCAGCTGAGTGATACCAGCATCGTCTTGATGCCCTTGGCAGCACTACGAGTCCCAAATAGGACGAAACGCGC
modifications: expressed or natural sequence
B6: RA073 (nucleic acid)
DNA: GCGCGTCCTGGATTCGCGGAAACGCGTACACGGAATACCAGCATCGTCTTGATGCCCTTGGAAGTCCGTCCAGCTGACGAGTCCCAAATAGGACGAAACGCGC
modifications: expressed or natural sequence
B7: RA075 (nucleic acid)
DNA: GCGCGTCCTGGATTCGCGGAAACGCGTACATCCAGCTGACGAGTCCCAAATAGGACGAAAGTGATACCAGCATCGTCTTGATGCCCTTGGCAGCACTACGCGC
modifications: expressed or natural sequence
B8: RA067 (nucleic acid)
DNA: GCGCGTCCTGGATTCGCGGAAACGCGTACATCCAGTGATACCAGCATCGTCTTGATGCCCTTGGCAGCACTAGCTGACGAGTCCCAAATAGGACGAAACGCGC
modifications: expressed or natural sequence
B9: RA066 (nucleic acid)
DNA: GCGCGTCCTGGATTCGCGGAAAGAATACCAGCATCGTCTTGATGCCCTTGGAAGTCTACGCGTACATCCAGCTGACGAGTCCCAAATAGGACGAAACGCGC
modifications: expressed or natural sequence
B10: RA069 (nucleic acid)
DNA: GCGCGTCCTGGATTCGCGGAAACGCGTACATCCAGCTGACGAGTCCCGGAATACCAGCATCGTCTTGATGCCCTTGGAAGTCCAAATAGGACGAAACGCGC
modifications: expressed or natural sequence
B11: RA072 (nucleic acid)
DNA: GCGCGTCCTGGATTCGCGGAAACGCGTACCGAGAATACCAGCATCGTCTTGATGCCCTTGGAAGTCTCGATCCAGCTGACGAGTCCCAAATAGGACGAAACGCGC
modifications: expressed or natural sequence

test system: Renilla luciferase RNA; test: Barcoded aptazyme variant library screen: un-cleaved Renilla luciferase RNA by barcode read counts, HEK293-T cells; format: cell-based; conditions: un-cleaved Renilla luciferase RNA, HEK293-T cells cultured with 1 mM theophylline (ON) over without theophylline (OFF); barcode read counts, triplicate
Outline: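 Barcode sequencing of cDNA versus DNA, normalized per aptazyme, gave the un-cleaved Renilla luciferase RNA fraction and fold-change with versus without theophylline (triplicates). Library: T3H48 ribozyme with one of seven theophylline aptamer variants inserted at each position, placed in the Renilla 3′ UTR of a dual-luciferase vector.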

Fold change in RNA expression between the ON state and the OFF state, 5.0 fold:
B2

Fold change in RNA expression between the ON state and the OFF state, 1.8 fold:
B1
B3
B4
B5
B6
B7
B8
B10
B11

Fold change in RNA expression between the ON state and the OFF state, 1.9 fold:
B9
